These results are taken from patent US20260166140A1, “Combinations Involving Epidermal Growth Factor Receptor Tyrosine Kinase Inhibitors For the Treatment of Cancer” (AstraZeneca AB, priority 2022, published 2026).

Data set [1] relates to multiple additional solid tumor indications. Conditions: cited from earlier work.
In a further data set the test system is H1975 cells. Kind of data set: Internalization of AF647-labeled antibodies, live cell confocal fluorescence microscopy. The conditions noted are these: for internalization profile: single-arm control antibodies. The format is cell-based. The protocol: (§1) Internalization kinetics of AlexaFluor647 (AF647) primary-labeled DuetMabs: RAA22/B09 and QD6/B09 antibodies was assessed in vitro using the EGFR and c-MET expressing cell line, H1975. Each antibody was pre-bound to cells and antibody translocation from cell surface to cytoplasm was then monitored using live cell confocal fluorescence microscopy. Both antibodies localized primarily on the cell surface before (T=0) subjecting to internalization conditions and were translocated to the cytoplasm area after 1 hour (data not shown). Kinetic images were taken every 5 min over the time course of internalization and were processed using a quantitative algorithm to determine internalization kinetic constants and half-times.
To evaluate the mode of antibody internalization and to investigate contribution of each arm to overall internalization of the DuetMabs, we evaluated internalization of single-arm specific control antibody molecules, QD6/IgG and B09/IgG, against duet QD6/B09, and RAA22/IgG and B09/IgG against duet RAA22/B09 in H1975 cells, which express both EGFR and c-MET. Since only one arm is specific for the target receptor, the control antibody can only internalize via one receptor eliminating dual receptor targeting and cross-linking as mode of internalization.

For the next data set, the system named is HCC827 cells. Described as above. In kind it is cell-based. The conditions noted are these: HCC827 cells. The protocol: as §1
Since binding of both EGFR and c-MET arms to target receptor promoted RAA22/B09 receptor internalization in H1975 cells, we examined if the increased number of EGFR and c-MET receptors would affect internalization properties. The respective receptor levels determined by Western Blot were ˜33,000 for EGFR and ˜50,000 for c-MET in H1975 cells and ˜790,000 for EGFR and ˜523,000 for c-MET in HCC827 cells.

Data set [2] deals with Cynomolgus monkey EGFR. Nature of the data set: SPR (BIAcore T200) antibody capture kinetics. In kind it is binding. The conditions noted are these: 25° C. The protocol:
(§2) Mouse anti-human IgG was immobilized on a CM4 sensor chip with a final surface density of ˜2000 resonance units (RUs). A reference flow cell surface was also prepared on this sensor chip using identical immobilization protocol. Test and control article antibodies were prepared at 5-20 nM in instrument buffer (HBS-EP buffer; 0.01M HEPES, pH 7.4, 0.15M NaCl, 3 mM EDTA, and 0.005% P-20), along with 3-fold serial dilutions of purified EGFR (0.27-200 nM human, 0.4-900 nM cyno, and 4-1000 nM murine) or cMET proteins (0.27 to 66 nM human and 0.27-22 nM cyno) in instrument buffer. A sequential approach was utilized for kinetic measurements. Antibodies were first injected over the capture surface, at a flow rate of 10 μL/minute. Once the binding of the captured antibody stabilized, a single concentration of the analyte was injected over both capture and reference surfaces, at a flow rate of 75 μL/minute. The resulting binding response curves yielded the association phase data. Following the injection of analyte, the flow was then switched back to instrument buffer for 15 minutes to permit the collection of dissociation phase data, followed by a 1-minute pulse of 10 mM glycine, pH 1.5, to regenerate the antibody-captured surface on the chip. Binding responses against test and control article antibodies were recorded from duplicate injections of each concentration of analyte. In addition, several buffer injections were interspersed throughout the injection series. Select buffer injections were used along with the reference cell responses to correct the raw data sets for injection artifacts and/or nonspecific binding interactions, commonly referred to as “double referencing”. Corrected binding data were globally fit to a 1:1 binding model (Biacore T200 Evaluation software 2.0, GE Healthcare, Pittsburgh, PA).
In general terms: SPR reads the build-up and loss of mass on a sensor chip optically.

In data set [3] the target is T1, Human EGFR (Homo sapiens, UniProt P00533). Kind of data set: SPR (BIAcore T200) antibody capture kinetics. The format is binding. The conditions noted are these: 25° C. The protocol:
as §2

For data set [4], the target named is T2, Mouse EGFR (Mus musculus, UniProt Q01279).
T2 construct: purchased SinoBiological 51091-M08H
Kind of data set: SPR (BIAcore T200) antibody capture kinetics. The format is binding. The conditions noted are these: 25° C. The protocol:
as §2

Data set [5] concerns Cynomolgus monkey EGFR. Kind of data set: ELISA species cross reactivity. In kind it is binding. The protocol:
(§3) Specificity for EGFR and cMET species paralogs and closely related family members was determined by ELISA. Briefly, antigen solutions were prepared in PBS at 1 μg/mL and 50 microliters was coated onto half area ELISA assay plates. Plates were washed and blocked with 1% BSA in PBS containing 0.005% Tween-20 (PBS-T) for one hour at room temperature. The wells were washed 4 times in PBS-T. As set out in FIG. 3, the primary antibodies used where: R374 (a non-binding IgG1 isotype control antibody), B09 (anti-cMET antibody), QD6 (anti-EGFR antibody), RAA22 (anti-EGFR antibody), QD6/B09 (bispecific EGFR/c-MET DuetMAb), RAA22/B09 (bispecific EGFR/c-MET DuetMAb), PaniX (anti-EGFR antibody), MetMab (anti-cMET antibody) and Mab11311 (anti-HER4 antibody). Wells were incubated with 50 microliters of the indicated primary antibodies diluted in PBS-T in a 1:3 dilution series, starting at 10 μg/mL and ending at 0.002 μg/mL, except for the HER4 binding mAb control, MAB1131, for which the series started at 1 μg/mL. The wells were washed 4 times in PBS-T, then 50 μl of goat anti-human Fab HRP-labeled secondary antibody, diluted 1:5000 in PBS-T, was added to each well and incubated for one hour at room temperature. […] 50 microliters of TMB stop solution was added to all wells and the absorbance was read at 450 nm on a SpectraMax M5 microplate reader. Data were analyzed in the SoftMax Pro 5 software and plotted using GraphPad Prism 7 graphing software.
(§4) To determine the species cross reactivity, ELISA assays were carried out as described above. […] There was no detectable binding of any of the antibodies to mouse cMET.
For orientation: An ELISA detects its analyte on a solid surface through an enzyme-linked reagent.

In data set [6] the target is T1, Human EGFR. Kind of data set: ELISA species cross reactivity. In kind it is binding. Conditions: antibody 10 to 0.002 μg/mL. The protocol: as §3, §4
The target of data set [7] is T2, Mouse EGFR. Kind of data set: ELISA species cross reactivity. The format is binding. The protocol: as §3, §4

Residue numbers refer to the chain shown, from its start.

For the molecule ABT-414, in data set [1] (Phase II trials, tolerated doses), the efficacy entry was “limited efficacy at tolerated doses”. Further, in data set [1] (treated patients), the ocular toxicities entry is given as “concerning ocular toxicities were frequently observed in treated patients”.

B1: RAA22/IgG: single-arm specific control antibody molecule with RAA22 EGFR arm (antibody, V domains shown)
VH: QVQLVQSGAEVKKPGSSVKVSCKASGGTFSDNDFSWVRQAPGQGLEWMGAIVAVFRTETYAQKFQDRVKITADISTRTTYMELSSLRSEDTAVYYCARRLMSAISGPGAPLLMWGQGTLVTVSS
VL: QSALTQPRSVSGSPGQSVTISCTGTSSDVGGYNYVSWYQQHPGKAPKLMIYDVSKRPSGVPDRFSGSKSGNTASLTISGLQAEDEADYYCSSYTSSDTLEIFGGGTKLTVL
For the molecule B1, in the data set with H1975 cells, the “number of molecules, fold less than for the RAA22-B09 DuetMab (based on fluorescent intensity)” value is listed as 10.98 fold and the internalization profile entry is given as “rapid internalization”. In the data set on HCC827 cells, the “intensity profiles, fold lower than RAA22/B09” value is approximately 10 fold.

B2: QD6 IgG: high affinity anti-EGFR IgG1 antibody clone, VH SEQ ID NO: 18, VL SEQ ID NO: 22 (antibody, V domains shown)
VH: B1 VH with F55V
VL: B1 VL with K55E, S91F
As to B2, the values for the Koff in the data set with Cynomolgus monkey EGFR [2], in the data set with Human EGFR [3] and with Mouse EGFR [4] were 0.000288 s⁻¹, 0.000292 s⁻¹ and 0.000735 s⁻¹, respectively. The Kon in the data set with Cynomolgus monkey EGFR [2] worked out at 114000 M⁻¹ s⁻¹; with Human EGFR [3] (1:1 binding model) it was 148000 M⁻¹ s⁻¹; with Mouse EGFR [4] it was 167000 M⁻¹ s⁻¹. In addition, the ELISA binding result in the data set on Cynomolgus monkey EGFR [5], in the data set with Human EGFR [6] and with Mouse EGFR [7] was “gave robust signals” throughout.

B3: QD6/IgG: single-arm specific control antibody molecule with QD6 EGFR arm (antibody, V domains shown)
VH: B1 VH with F55V
VL: B1 VL with K55E, S91F
As to B3, the internalization profile result in the data set on H1975 cells is “near-identical internalization time course as the QD6/B09 DuetMab”.

B4: B09/IgG: single-arm specific control antibody molecule with B09 cMET arm (antibody, V domains shown)
VH: QVQLVQSGAEVKKPGASVKVSCKASGYTFTDYYIHWVRQATGQGLEWMGWMNPNSGNTGYAQKFQGRVTMTRDTSISTAYMELSSLRSEDTAVYYCARGQGYTHSWGQGTMVTVSS
VL: DIQMTQSPSTLSASVGDRVTITCRASEGIYHWLAWYQQKPGKAPKLLIYKASSLASGVPSRFSGSGSGTEFTLTISSLQPDDFATYYCQQYSNYPPTFGGGTKLEIK
modifications: left off: another chain or arm of the molecule; a dimerising Fc or GST; small tags and cut ends
Take B4: the values for the internalization profile result with H1975 cells and in the data set on HCC827 cells were “very small level of internalization” and “dissociates from cell membrane”, respectively.
